In patent US20240261333A1 (published 2024):

Key:
Assay in all cases: co-IP with anti-FLAG, mass spectrometry; N-FLAG B3GNT2
TPI1 = biological target: T1, TPI1 (UniProt P60174 2-249)
T1 construct: Endogenous protein found in the co-IP by mass spectrometry; also called NP_000356.1 (+2)
Protocol: (§1) Cells were plated in 10-cm cell culture dishes and grown to 60-80% confluency. For each condition, two biological replicates were harvested for co-IP. Cells were washed with PBS and 4 mL of lysis buffer (20 mM HEPES, 1% Triton X-100, 150 mM NaCl, 1 mM EDTA, and 10% glycerol) containing protease inhibitor cocktail was added. Cells were scraped and lysate was incubated at 4° C. under rotary agitation for 1 h. Lysate was centrifuged at 14,000×g for 10 min at 4° C. Supernatant was transferred to a new tube and an aliquot was taken as the input. […] For Western blots, 10 μg/mL Chicken Anti-FLAG (Aves labs ET-DY100) and IgY control (R&D Systems AB-101-C) antibodies were biotinylated (Thermo Fisher Scientific 90407) and added to the respective conditions. Lysates with antibodies were incubated at 4° C. under rotary agitation overnight. For each mL of lysate, 50 μL of Pierce Protein A/G Magnetic Beads (Mass spectrometry; Thermo Fisher Scientific 88803) or Pierce Streptavidin Magnetic Beads (Western blot; Thermo Fisher Scientific 88817) was washed twice with lysis buffer. Lysates with antibodies were added to the beads and incubated at 4° C. under rotary agitation for 4 h. Beads were washed with lysis buffer 3 times and resuspended in lysis buffer for storage.
(§2) Magnetic beads were resuspended in 100 mM Tris pH 7.8, reduced, alkylated and digested with trypsin at 37° ° C. overnight. This solution was subjected to solid phase extraction to concentrate the peptides and remove unwanted reagents followed by injection onto a Shimadzu HPLC with fraction collector. Eight fractions were collected and after concentration were injected on a Waters NanoAcquity HPLC equipped with a self-packed Aeris 3 μm C18 analytical column 0.075 mm by 20 cm, (Phenomenex). Peptides were eluted using standard reverse-phase gradients. The effluent from the column was analyzed using a Thermo Orbitrap Elite mass spectrometer (nanospray configuration) operated in a data dependent manner for 54 minutes. The resulting fragmentation spectra were correlated against the known database using Proteome Discover 1.4 (Thermo Fisher Scientific).

LYZ = biological target: T2, LYZ (UniProt P61626 19-148)
T2 construct: Protein found in the co-IP by mass spectrometry; also called NP_000230.1
T2 sequence (looked up): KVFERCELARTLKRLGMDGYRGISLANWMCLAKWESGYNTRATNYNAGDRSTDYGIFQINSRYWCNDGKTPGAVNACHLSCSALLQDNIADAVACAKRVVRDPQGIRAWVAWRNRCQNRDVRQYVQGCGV
Protocol: as §1, §2

RPL11 = RPL11 (UniProt P62913 2-177)
Protocol: as §1, §2

RPL10A = RPL10A (UniProt P62906 2-217)
Protocol: as §1, §2

LTF = biological target: T3, LTF (UniProt P02788 20-710, limits assumed)
T3 construct: Protein found in the co-IP by mass spectrometry; also called NP_001308051.1
T3 sequence (P02788 20-710 limits assumed): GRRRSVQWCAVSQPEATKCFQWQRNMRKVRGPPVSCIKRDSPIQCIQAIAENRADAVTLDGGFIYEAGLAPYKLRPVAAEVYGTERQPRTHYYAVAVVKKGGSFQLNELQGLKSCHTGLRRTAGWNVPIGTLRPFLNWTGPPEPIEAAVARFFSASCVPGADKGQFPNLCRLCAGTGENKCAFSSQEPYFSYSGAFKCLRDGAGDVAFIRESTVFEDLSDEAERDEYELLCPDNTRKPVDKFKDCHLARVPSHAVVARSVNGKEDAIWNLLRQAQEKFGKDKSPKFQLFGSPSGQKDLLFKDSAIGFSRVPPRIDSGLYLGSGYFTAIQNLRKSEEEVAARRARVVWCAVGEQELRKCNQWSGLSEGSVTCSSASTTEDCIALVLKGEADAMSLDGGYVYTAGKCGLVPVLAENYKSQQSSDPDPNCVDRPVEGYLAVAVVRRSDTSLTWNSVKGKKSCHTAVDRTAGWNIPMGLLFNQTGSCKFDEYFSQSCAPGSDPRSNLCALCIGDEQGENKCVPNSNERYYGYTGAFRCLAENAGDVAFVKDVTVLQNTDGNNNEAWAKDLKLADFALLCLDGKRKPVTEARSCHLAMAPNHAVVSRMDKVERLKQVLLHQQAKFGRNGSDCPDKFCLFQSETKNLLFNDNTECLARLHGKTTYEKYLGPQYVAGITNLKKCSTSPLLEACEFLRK
Protocol: as §1, §2

RPS17 = RPS17 (UniProt P08708 2-135)
Protocol: as §1, §2

HNRNPF = biological target: T4, HNRNPF (UniProt P52597 2-415)
T4 construct: Endogenous protein found in the co-IP by mass spectrometry; also called NP_001091676.1
T4 sequence (looked up): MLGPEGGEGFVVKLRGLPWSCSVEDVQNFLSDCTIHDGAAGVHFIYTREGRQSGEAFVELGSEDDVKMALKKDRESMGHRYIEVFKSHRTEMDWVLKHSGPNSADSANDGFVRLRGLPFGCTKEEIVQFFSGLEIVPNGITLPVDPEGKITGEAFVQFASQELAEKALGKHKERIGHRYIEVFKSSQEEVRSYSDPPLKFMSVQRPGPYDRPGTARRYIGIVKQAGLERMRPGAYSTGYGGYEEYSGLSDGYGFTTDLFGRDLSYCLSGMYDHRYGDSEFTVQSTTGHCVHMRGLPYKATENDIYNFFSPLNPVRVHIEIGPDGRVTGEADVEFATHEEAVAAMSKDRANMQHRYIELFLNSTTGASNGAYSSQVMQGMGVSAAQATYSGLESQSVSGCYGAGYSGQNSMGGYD
Protocol: as §1, §2

RPN1 = biological target: T5, RPN1 (UniProt P04843 24-607)
T5 construct: Endogenous protein found in the co-IP by mass spectrometry; also called NP_002941.1
T5 sequence (looked up): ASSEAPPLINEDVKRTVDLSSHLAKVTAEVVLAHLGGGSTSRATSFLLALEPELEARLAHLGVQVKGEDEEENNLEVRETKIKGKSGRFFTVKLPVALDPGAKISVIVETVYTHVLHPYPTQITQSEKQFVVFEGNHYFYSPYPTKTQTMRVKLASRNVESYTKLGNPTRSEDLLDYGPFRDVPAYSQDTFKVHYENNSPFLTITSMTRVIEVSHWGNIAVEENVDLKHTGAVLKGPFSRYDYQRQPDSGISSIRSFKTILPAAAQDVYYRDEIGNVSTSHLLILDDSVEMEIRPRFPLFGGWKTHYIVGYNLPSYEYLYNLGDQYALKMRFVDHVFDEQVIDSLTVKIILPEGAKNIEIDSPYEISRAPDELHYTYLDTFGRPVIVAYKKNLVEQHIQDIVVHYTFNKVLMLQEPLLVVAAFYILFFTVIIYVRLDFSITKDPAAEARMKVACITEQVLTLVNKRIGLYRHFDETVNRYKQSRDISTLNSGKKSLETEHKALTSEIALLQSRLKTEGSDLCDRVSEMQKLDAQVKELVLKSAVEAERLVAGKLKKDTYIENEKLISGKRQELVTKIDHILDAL
Protocol: as §1, §2

RPL36 = RPL36 (UniProt Q9Y3U8 2-105)
Protocol: as §1, §2

RPS15A = RPS15A (UniProt P62244 2-130)
Protocol: as §1, §2

RPS11 = RPS11 (UniProt P62280 2-158)
Protocol: as §1, §2

T1 sequence (P60174 2-249 limits assumed): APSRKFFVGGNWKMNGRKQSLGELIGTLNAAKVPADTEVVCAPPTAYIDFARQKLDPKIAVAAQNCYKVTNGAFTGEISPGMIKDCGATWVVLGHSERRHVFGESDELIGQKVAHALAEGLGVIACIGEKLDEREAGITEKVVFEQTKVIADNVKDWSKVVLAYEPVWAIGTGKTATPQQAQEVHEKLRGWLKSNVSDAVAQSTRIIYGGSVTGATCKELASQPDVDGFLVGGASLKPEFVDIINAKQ

B1: N-terminal FLAG tagged B3GNT2 (enzyme, human, UniProt Q9NY97 1-397, looked up)
chain: MSVGRRRIKLLGILMMANVFIYFIMEVSKSSSQEKNGKGEVIIPKEKFWKISTPPEAYWNREQEKLNRQYNPILSMLTNQTGEAGRLSNISHLNYCEPDLRVTSVVTGFNNLPDRFKDFLLYLRCRNYSLLIDQPDKCAKKPFLLLAIKSLTPHFARRQAIRESWGQESNAGNQTVVRVFLLGQTPPEDNHPDLSDMLKFESEKHQDILMWNYRDTFFNLSLKEVLFLRWVSTSCPDTEFVFKGDDDVFVNTHHILNYLNSLSKTKAKDLFIGDVIHNAGPHRDKKLKYYIPEVVYSGLYPPYAGGGGFLYSGHLALRLYHITDQVHLYPIDDVYTGMCLQKLGLVPEKHKGFRTFDIEEKNKNNICSYVDLMLVHSRKPQEMIDIWSQLQSAHLKC
notes: FLAG-tagged ORF overexpressed in cells; bait of the anti-FLAG co-IP; also called N-FLAG B3GNT2; N-term FLAG; not shown: FLAG tag at the N-terminus
- co-IP mass spectrometry count (TPI1): 3
- co-IP mass spectrometry count (LYZ): 3
- co-IP mass spectrometry count (RPL11): 5
- co-IP mass spectrometry count (RPL10A): 6
- co-IP mass spectrometry count (LTF): 8
- co-IP mass spectrometry count (RPS17): 5
- co-IP mass spectrometry count (HNRNPF): 0
- co-IP mass spectrometry count (RPN1): 0
- co-IP mass spectrometry count (RPL36): 0
- co-IP mass spectrometry count (RPS15A): 3
- co-IP mass spectrometry count (RPS11): 13
